Target: GST-BLM fusion protein (human), P54132
Experiment: pull-down
Details: remark: other sources report otherwise

Sequence of GST-BLM fusion protein (human), P54132 (P54132 whole entry, the tested form may be a part): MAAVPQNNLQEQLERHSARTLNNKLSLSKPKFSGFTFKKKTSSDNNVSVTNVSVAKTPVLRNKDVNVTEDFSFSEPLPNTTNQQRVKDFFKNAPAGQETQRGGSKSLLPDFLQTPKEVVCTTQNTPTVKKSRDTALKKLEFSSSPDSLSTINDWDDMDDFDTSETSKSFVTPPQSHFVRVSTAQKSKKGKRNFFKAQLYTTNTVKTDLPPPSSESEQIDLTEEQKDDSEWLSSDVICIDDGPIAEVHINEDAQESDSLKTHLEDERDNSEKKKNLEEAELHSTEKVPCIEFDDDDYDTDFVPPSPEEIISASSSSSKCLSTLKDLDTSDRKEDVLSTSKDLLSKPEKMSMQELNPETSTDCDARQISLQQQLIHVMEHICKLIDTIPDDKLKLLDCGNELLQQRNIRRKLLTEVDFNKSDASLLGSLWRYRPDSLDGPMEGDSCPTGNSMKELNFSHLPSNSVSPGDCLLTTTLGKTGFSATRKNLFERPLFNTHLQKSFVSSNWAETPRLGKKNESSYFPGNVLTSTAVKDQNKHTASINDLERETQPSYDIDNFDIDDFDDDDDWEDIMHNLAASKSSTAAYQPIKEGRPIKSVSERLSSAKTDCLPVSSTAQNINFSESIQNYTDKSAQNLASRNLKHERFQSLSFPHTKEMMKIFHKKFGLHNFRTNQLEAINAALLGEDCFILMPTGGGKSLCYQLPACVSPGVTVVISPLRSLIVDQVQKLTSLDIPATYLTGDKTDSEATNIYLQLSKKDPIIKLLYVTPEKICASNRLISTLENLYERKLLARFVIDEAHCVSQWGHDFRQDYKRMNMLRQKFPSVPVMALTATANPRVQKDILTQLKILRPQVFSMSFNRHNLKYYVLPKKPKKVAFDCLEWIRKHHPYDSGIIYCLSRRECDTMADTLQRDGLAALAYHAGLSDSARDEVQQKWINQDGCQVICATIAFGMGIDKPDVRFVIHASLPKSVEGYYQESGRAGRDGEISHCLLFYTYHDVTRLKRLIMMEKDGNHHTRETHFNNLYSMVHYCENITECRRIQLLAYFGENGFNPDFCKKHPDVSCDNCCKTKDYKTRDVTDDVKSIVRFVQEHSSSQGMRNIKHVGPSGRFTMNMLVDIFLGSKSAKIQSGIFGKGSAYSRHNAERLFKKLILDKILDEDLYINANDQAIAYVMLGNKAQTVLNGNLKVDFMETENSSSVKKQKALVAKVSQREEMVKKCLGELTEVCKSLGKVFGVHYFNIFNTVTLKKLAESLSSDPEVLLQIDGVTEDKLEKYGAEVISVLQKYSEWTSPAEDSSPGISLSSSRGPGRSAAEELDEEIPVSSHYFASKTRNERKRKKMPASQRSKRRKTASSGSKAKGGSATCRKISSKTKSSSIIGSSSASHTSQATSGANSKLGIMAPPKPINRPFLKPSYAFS

B1: hRAD51, Q06609 1-339 (natural protein)
chain: MAMQMQLEANADTSVEEESFGPQPISRLEQCGINANDVKKLEEAGFHTVEAVAYAPKKELINIKGISEAKADKILAEAAKLVPMGFTTATEFHQRRSEIIQITTGSKELDKLLQGGIETGSITEMFGEFRTGKTQICHTLAVTCQLPIDRGGGEGKAMYIDTEGTFRPERLLAVAERYGLSGSDVLDNVAYARAFNTDHQTQLLYQASAMMVESRYALLIVDSATALYRTDYSGRGELSARQMHLARFLRMLLRLADEFGVAVVITNQVVAQVDGAAMFAADPKKPIGGNIIAHASTTRLYLRKGRGETRICKIYDSPCLPEAEAMFAINADGVGDAKD
A percent of the hRAD51 in the lysate retained of 30 to 40% was found for B1 in this work.

— PMC2169463
